First the molecules themselves.
B1: SNAP91 (parent)
chain: FAQPMMRPPFGAAAVPGTQLSPSP
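Note: lentivirally expressed fusions sorted by FACS into six bins by GFP to DsRed ratio, PSI derived from sequencing read proportions per bin multiplied by bin number.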

Variants of B1 are the subject of this data set. Description: protein stability index of a GFP-peptide fusion (GPS, HEK-293T) (PSI 1-6); higher = more stable. The following applies: c terminus: a fixed tail appended.
As for FAQPMMRPPFGAAAVPHTQLSPSP [G17H], the protein stability index was 3.22.

FAQPMMRPPFGAAAVPMTQLSPSP [G17M]: the protein stability index turned out to be 2.84.

On to FAQPMMRPPFGAAAVPATQLSPSP [G17A], for which the protein stability index was determined as 3.11.

As for FAQPMMRPPFGAAAVPQTQLSPSP [G17Q], the protein stability index came out at 3.48.

FAQPMMRPPFGAAAVPCTQLSPSP [G17C]: the protein stability index was 2.71.

FAQPMMRPPFGAAAVPNTQLSPSP [G17N]: the protein stability index amounted to 3.44.

With FAQPMMRPPFGAAAVPFTQLSPSP [G17F], the protein stability index was found to be 2.69.

In the case of FAQPMMRPPFGAAAVPDTQLSPSP [G17D], the protein stability index stood at 3.04.

Regarding FAQPMMRPPFGAAAVPTTQLSPSP [G17T], the protein stability index amounted to 3.24.

Regarding FAQPMMRPPFGAAAVPSTQLSPSP [G17S], the protein stability index is 2.81.

As to FAQPMMRPPFGAAAVPRTQLSPSP [G17R], the protein stability index is 3.89.

As for FAQPMMRPPFGAAAVPITQLSPSP [G17I], the protein stability index is 2.88.

For FAQPMMRPPFGAAAVPVTQLSPSP [G17V], the protein stability index was determined as 2.85.

With FAQPMMRPPFGAAAVPKTQLSPSP [G17K], the protein stability index is 3.17.

As to FAQPMMRPPFGAAAVPYTQLSPSP [G17Y], the protein stability index came to 2.74.

In the case of FAQPMMRPPFGAAAVPLTQLSPSP [G17L], the protein stability index amounted to 3.46.

As to FAQPMMRPPFGAAAVPETQLSPSP [G17E], the protein stability index amounted to 2.71.

Regarding FAQPMMRPPFGAAAVPWTQLSPSP [G17W], the protein stability index was 2.49.

As to FAQPMMRPPFGASAVPGTQLSPSP [A13S], the protein stability index turned out to be 3.25.

Consider FAQPMMRPPFGAYAVPGTQLSPSP [A13Y], for which the protein stability index was determined as 2.75.

Take FAQPMMRPPFGAMAVPGTQLSPSP [A13M]: the protein stability index worked out at 2.79.

With FAQPMMRPPFGAHAVPGTQLSPSP [A13H], the protein stability index worked out at 3.13.

Turning to FAQPMMRPPFGAGAVPGTQLSPSP [A13G], the protein stability index was found to be 3.44.

Take FAQPMMRPPFGACAVPGTQLSPSP [A13C]: the protein stability index stood at 2.39.

Take FAQPMMRPPFGAEAVPGTQLSPSP [A13E]: the protein stability index was 3.24.

As to FAQPMMRPPFGATAVPGTQLSPSP [A13T], the protein stability index came to 3.36.

Regarding FAQPMMRPPFGAQAVPGTQLSPSP [A13Q], the protein stability index was 3.32.

On to FAQPMMRPPFGAPAVPGTQLSPSP [A13P], for which the protein stability index was found to be 3.76.

FAQPMMRPPFGAKAVPGTQLSPSP [A13K]: the protein stability index turned out to be 3.13.

With FAQPMMRPPFGALAVPGTQLSPSP [A13L], the protein stability index worked out at 2.63.

On to FAQPMMRPPFGAVAVPGTQLSPSP [A13V], for which the protein stability index is 2.73.

As for FAQPMMRPPFGAFAVPGTQLSPSP [A13F], the protein stability index stood at 3.13.

With FAQPMMRPPFGARAVPGTQLSPSP [A13R], the protein stability index came to 3.65.

In the case of FAQPMMRPPFGANAVPGTQLSPSP [A13N], the protein stability index is 3.46.

FAQPMMRPPFGAIAVPGTQLSPSP [A13I]: the protein stability index is 2.54.

For FAQPMMRPPFGAWAVPGTQLSPSP [A13W], the protein stability index came out at 1.62.

In the case of FAQPMMRPPFGADAVPGTQLSPSP [A13D], the protein stability index was determined as 3.38.

With FAQPMMRPPFGAAWVPGTQLSPSP [A14W], the protein stability index came out at 1.81.

Turning to FAQPMMRPPFGAAIVPGTQLSPSP [A14I], the protein stability index came out at 2.82.

FAQPMMRPPFGAAKVPGTQLSPSP [A14K]: the protein stability index amounted to 3.21.

With FAQPMMRPPFGAAVVPGTQLSPSP [A14V], the protein stability index is 2.61.

On to FAQPMMRPPFGAARVPGTQLSPSP [A14R], for which the protein stability index is 3.31.

For the variant FAQPMMRPPFGAACVPGTQLSPSP [A14C], the protein stability index is 2.81.

FAQPMMRPPFGAANVPGTQLSPSP [A14N]: the protein stability index is 3.17.

Regarding FAQPMMRPPFGAATVPGTQLSPSP [A14T], the protein stability index is 2.45.

With FAQPMMRPPFGAASVPGTQLSPSP [A14S], the protein stability index came to 2.87.

Turning to FAQPMMRPPFGAAPVPGTQLSPSP [A14P], the protein stability index stood at 3.08.

For FAQPMMRPPFGAAYVPGTQLSPSP [A14Y], the protein stability index worked out at 3.04.

Turning to FAQPMMRPPFGAAFVPGTQLSPSP [A14F], the protein stability index is 2.65.

Take FAQPMMRPPFGAAQVPGTQLSPSP [A14Q]: the protein stability index was 3.25.

Regarding FAQPMMRPPFGAAGVPGTQLSPSP [A14G], the protein stability index came to 2.8.

Take FAQPMMRPPFGAADVPGTQLSPSP [A14D]: the protein stability index came out at 2.79.

For FAQPMMRPPFGAAEVPGTQLSPSP [A14E], the protein stability index came to 3.01.

Consider FAQPMMRPPFGAAMVPGTQLSPSP [A14M], for which the protein stability index was determined as 3.03.

As to FAQPMMRPPFGAALVPGTQLSPSP [A14L], the protein stability index stood at 2.78.

On to FAQPMMRPPFGAAHVPGTQLSPSP [A14H], for which the protein stability index worked out at 2.99.

Turning to FAQPMMRPPFGAAAVPGTQGSPSP [L20G], the protein stability index was determined as 3.6.

Consider FAQPMMRPPFGAAAVPGTQNSPSP [L20N], for which the protein stability index is 3.26.

In the case of FAQPMMRPPFGAAAVPGTQRSPSP [L20R], the protein stability index was 3.51.

For the variant FAQPMMRPPFGAAAVPGTQKSPSP [L20K], the protein stability index is 3.29.

In the case of FAQPMMRPPFGAAAVPGTQWSPSP [L20W], the protein stability index came to 2.73.

For FAQPMMRPPFGAAAVPGTQMSPSP [L20M], the protein stability index was 2.92.

On to FAQPMMRPPFGAAAVPGTQPSPSP [L20P], for which the protein stability index stood at 3.2.

For the variant FAQPMMRPPFGAAAVPGTQQSPSP [L20Q], the protein stability index amounted to 4.04.

For the variant FAQPMMRPPFGAAAVPGTQASPSP [L20A], the protein stability index worked out at 3.28.

FAQPMMRPPFGAAAVPGTQTSPSP [L20T]: the protein stability index was 3.56.

FAQPMMRPPFGAAAVPGTQSSPSP [L20S]: the protein stability index is 3.33.

For the variant FAQPMMRPPFGAAAVPGTQDSPSP [L20D], the protein stability index was 2.98.

On to FAQPMMRPPFGAAAVPGTQHSPSP [L20H], for which the protein stability index is 3.43.

Consider FAQPMMRPPFGAAAVPGTQCSPSP [L20C], for which the protein stability index was found to be 3.7.

As to FAQPMMRPPFGAAAVPGTQFSPSP [L20F], the protein stability index turned out to be 2.71.

Regarding FAQPMMRPPFGAAAVPGTQVSPSP [L20V], the protein stability index was determined as 2.85.

On to FAQPMMRPPFGAAAVPGTQYSPSP [L20Y], for which the protein stability index came to 3.08.

In the case of FAQPMMRPPFGAAAVPGTQESPSP [L20E], the protein stability index was determined as 2.94.

On to FAQPMMRPPFGAAAVPGTQISPSP [L20I], for which the protein stability index is 3.02.

Regarding FAQPMMRPPFGAAALPGTQLSPSP [V15L], the protein stability index came to 3.08.

FAQPMMRPPFGAAAYPGTQLSPSP [V15Y]: the protein stability index was 2.83.

Take FAQPMMRPPFGAAATPGTQLSPSP [V15T]: the protein stability index was determined as 3.5.

Consider FAQPMMRPPFGAAAKPGTQLSPSP [V15K], for which the protein stability index came to 2.92.

As to FAQPMMRPPFGAAAHPGTQLSPSP [V15H], the protein stability index stood at 3.28.

Turning to FAQPMMRPPFGAAACPGTQLSPSP [V15C], the protein stability index was 3.21.

Regarding FAQPMMRPPFGAAAEPGTQLSPSP [V15E], the protein stability index came out at 2.98.

On to FAQPMMRPPFGAAADPGTQLSPSP [V15D], for which the protein stability index came to 2.73.

As to FAQPMMRPPFGAAAIPGTQLSPSP [V15I], the protein stability index stood at 2.82.

Turning to FAQPMMRPPFGAAAGPGTQLSPSP [V15G], the protein stability index amounted to 2.96.

Regarding FAQPMMRPPFGAAAAPGTQLSPSP [V15A], the protein stability index is 3.54.

As to FAQPMMRPPFGAAANPGTQLSPSP [V15N], the protein stability index turned out to be 3.27.

Regarding FAQPMMRPPFGAAAFPGTQLSPSP [V15F], the protein stability index came out at 2.78.

With FAQPMMRPPFGAAAQPGTQLSPSP [V15Q], the protein stability index was 3.42.

Take FAQPMMRPPFGAAAWPGTQLSPSP [V15W]: the protein stability index amounted to 2.52.

For the variant FAQPMMRPPFGAAAMPGTQLSPSP [V15M], the protein stability index came to 3.01.

For the variant FAQPMMRPPFGAAARPGTQLSPSP [V15R], the protein stability index stood at 3.31.

As to FAQPMMRPPFGAAASPGTQLSPSP [V15S], the protein stability index was 3.28.

Consider FAQPMMRPPFTAAAVPGTQLSPSP [G11T], for which the protein stability index is 3.44.

Values taken from the supplement of paper PMC10567573.
